In experiment [1] the target is recombinant IL12 (Peprotech) (human) (UniProt P29460). In words: SPR; SPR binding to immobilized IL12; kinetics post-digest with Matriptase; ka near instrument detection limit. (Surface plasmon resonance follows binding to a sensor surface in real time, without labels.)
The target is the same in experiment [2]. Kind of experiment: SPR; SPR binding to immobilized IL12; kinetics post-digest with Matriptase.

Consider 2 molecules from patent US20230122079A1.

Chain of recombinant IL12 (Peprotech) (human) (P29460 23-328 limits assumed, chain 1 of 2): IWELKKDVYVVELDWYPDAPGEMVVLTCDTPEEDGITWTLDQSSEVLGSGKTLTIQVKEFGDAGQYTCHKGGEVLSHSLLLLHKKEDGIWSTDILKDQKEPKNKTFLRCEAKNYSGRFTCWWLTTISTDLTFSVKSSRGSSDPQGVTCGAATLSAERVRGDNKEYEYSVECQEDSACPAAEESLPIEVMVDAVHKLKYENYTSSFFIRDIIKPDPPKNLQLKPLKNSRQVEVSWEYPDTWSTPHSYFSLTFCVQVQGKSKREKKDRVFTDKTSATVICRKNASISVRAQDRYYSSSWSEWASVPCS
Chain of recombinant IL12 (Peprotech) (human) (chain, as listed by the source limits assumed, chain 2 of 2): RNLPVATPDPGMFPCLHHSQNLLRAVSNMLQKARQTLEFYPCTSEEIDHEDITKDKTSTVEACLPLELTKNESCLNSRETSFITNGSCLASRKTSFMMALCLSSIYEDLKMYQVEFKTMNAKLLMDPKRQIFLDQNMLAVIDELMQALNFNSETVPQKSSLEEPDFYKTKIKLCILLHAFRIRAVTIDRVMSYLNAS

B1: v32910 digested with Matriptase (Fc fusion)
chain: SANAGGGGSGGGGSQVQLVESGGGVVQPGRSLRLSCAASGFTFSSYGMHWVRQAPGKGLEWVAFIRYDGSNKYYADSVKGRFTISRDNSKNTLYLQMNSLRAEDTAVYYCKTHGSHDNWGQGTMVTVSSGGGGSGGGSGGGSGGGGSGGGGSQSVLTQPPSVSGAPGQRVTISCSGSRSNIGSNTVKWYQQLPGTAPKLLIYYNDQRPSGVPDRFSGSKSGTSASLAITGLQAEDEADYYCQSYDRYTHPALLFGTGTKVTVL
As a reminder, the kon is the rate constant with which the complex forms. In general, Kd refers to the constant that tells how readily two partners part at equilibrium. What is called koff is the rate constant with which the complex falls apart. Consider B1, for which, in experiment [1], the kon is 8.65e+06 M⁻¹ s⁻¹. Moreover, in experiment [2], the Kd is 5.37 pM and the koff was determined as 4.68e-05 s⁻¹.

B2: v32909 digested with Matriptase (Fc fusion)
chain 1: SANAGGGGSGGGGSQVQLVESGGGVVQPGRSLRLSCAASGFTFSSYGMHWVRQAPGKGLEWVAFIRYDGSNKYYADSVKGRFTISRDNSKNTLYLQMNSLRAEDTAVYYCKTHGSHDNWGQGTMVTVSSGGGGSMSGR
chain 2: SANAGGGGSGGGGSQSVLTQPPSVSGAPGQRVTISCSGSRSNIGSNTVKWYQQLPGTAPKLLIYYNDQRPSGVPDRFSGSKSGTSASLAITGLQAEDEADYYCQSYDRYTHPALLFGTGTKVTVL
Consider B2, for which the kon in experiment [1] was 4.19e+07 M⁻¹ s⁻¹. In addition, in experiment [2], the Kd was 1.47 pM and the koff came to 6.48e-05 s⁻¹.
